± gives the standard deviation of the averaged measurements.
Tested on: ATP
Assay: switch fluorescence ratio, 500 uM ATP over buffer (Cy3 cluster intensity, sum of 5 cycles each) (fold (ratio)); higher = stronger signal-on switching upon ATP binding; sequences stand for … in TCGTCGGCAGCGTCAGATGTGTATAAGAGACAGTTTTTTTTTTTTTTTTTTTTTTTTT…TC
Conditions: aptamer strand: ATP DNA aptamer (quencher-CACCTGGGGGAGTATTGCGGAGGAAGG + anchor), 100 nM annealed; ATP concentration: 500 uM
Summary of the method: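 Per cluster, summed Cy3 intensity from the target cycles was divided by that from the buffer cycles to give the fluorescence ratio, then averaged per switch-domain sequence. Clusters outside 100-1000 RFU were excluded. The Cy3-labelled switching-strand clusters, on a modified Illumina MiSeq flow-cell, were annealed to 100 nM quencher-labelled ATP aptamer and imaged in selection buffer, then after 15 min with 500 uM ATP at 22 °C, for five cycles with NaOH stripping and re-annealing between them.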
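Also: ATP exposure 15 min at 22 °C before imaging.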

| Sequence | switch fluorescence ratio |
| --- | --- |
| TCTAATGTGG | 0.983 ± 0.043 |
| TCTAATTCAA | 0.996 ± 0.018 |
| TCTACTGGGG | 0.994 ± 0.029 |
| TCTAGGACGG | 1 ± 0.017 |
| TCTAGGCGTC | 1.07 ± 0.031 |
| TCTAGGGCAA | 1.66 ± 0.086 |
| TCTAGTCCGA | 1.003 ± 0.009 |
| TCTAGTGGGG | 1.01 ± 0.028 |
| TCTAGTGGTA | 0.9893 ± 0.0096 |
| TCTATAAATA | 0.985 ± 0.022 |
| TCTATATGGG | 0.99 ± 0.011 |
| TCTATGATAG | 0.971 ± 0.013 |
| TCTCAAAAAT | 1.1 ± 0.025 |
| TCTCACATCG | 1.01 ± 0.024 |
| TCTCAGTAGG | 1.02 ± 0.013 |
| TCTCAGTCCA | 1.02 ± 0.039 |
| TCTCCGAGTG | 1.45 ± 0.17 |
| TCTCCGGGGA | 1.2077 ± 0.0006 |
| TCTCGAGGGG | 1 ± 0.019 |
| TCTCGCCAAG | 1.06 ± 0.019 |
| TCTCGCCTTT | 0.975 ± 0.066 |
| TCTCGGCTGG | 0.9962 ± 0.001 |
| TCTCTGGATG | 1.02 ± 0.013 |
| TCTCTGTAGG | 1.03 ± 0.037 |
| TCTCTGTCGG | 1.05 ± 0.011 |
| TCTCTGTCTC | 1.12 ± 0.097 |

| Sequence | switch fluorescence ratio |
| --- | --- |
| TCTCTTATGA | 0.997 ± 0.011 |
| TCTCTTGGGA | 1.03 ± 0.024 |
| TCTGAAAATG | 0.998 ± 0.012 |
| TCTGAAATTC | 1.15 ± 0.055 |
| TCTGAAATTT | 0.9727 ± 0.0067 |
| TCTGACAATC | 1.91 ± 0.24 |
| TCTGACGTA | 1.04 ± 0.0091 |
| TCTGAGGGGA | 1.02 ± 0.055 |
| TCTGATAGTT | 0.998 ± 0.021 |
| TCTGATGGTG | 1.06 ± 0.039 |
| TCTGATGTGA | 1.08 ± 0.044 |
| TCTGATGTTT | 1.01 ± 0.021 |
| TCTGCTAAAA | 0.973 ± 0.041 |
| TCTGGAATAA | 1.66 ± 0.057 |
| TCTGGCCGCG | 1.015 ± 0.0075 |
| TCTGGGAATA | 1.04 ± 0.023 |
| TCTGGGCCTT | 0.999 ± 0.023 |
| TCTGGGGAGG | 1 ± 0.02 |
| TCTGGGGGT | 0.949 ± 0.02 |
| TCTGGGGTGG | 1.16 ± 0.21 |
| TCTGGGGTTT | 1.03 ± 0.051 |
| TCTGGGTGAA | 1.03 ± 0.081 |
| TCTGGTTAGT | 1.01 ± 0.066 |
| TCTGGTTTTG | 0.984 ± 0.043 |
| TCTGTAGGTG | 1.07 ± 0.046 |
| TCTGTAGTGG | 1.03 ± 0.014 |

| Sequence | switch fluorescence ratio |
| --- | --- |
| TCTGTATCCG | 0.984 ± 0.015 |
| TCTGTATGTA | 1.01 ± 0.026 |
| TCTGTCCAGC | 0.9775 ± 0.0046 |
| TCTGTCCTTT | 0.9708 ± 0.0028 |
| TCTGTGACTA | 1.06 ± 0.044 |
| TCTGTGATCT | 1.01 ± 0.021 |
| TCTGTTAAT | 1.11 ± 0.18 |
| TCTGTTTGTT | 1.015 ± 0.01 |
| TCTGTTTTTT | 0.989 ± 0.01 |
| TCTTACGGGG | 1.003 ± 0.01 |
| TCTTAGCATA | 1.18 ± 0.13 |
| TCTTAGCGCG | 1.07 ± 0.041 |
| TCTTAGGACG | 0.997 ± 0.036 |
| TCTTAGGTGG | 1.05 ± 0.016 |
| TCTTAGTAGT | 0.986 ± 0.028 |
| TCTTATAATA | 0.988 ± 0.032 |
| TCTTATAATT | 1.01 ± 0.011 |
| TCTTATTCAA | 0.98 ± 0.012 |
| TCTTATTGCT | 0.96 ± 0.045 |
| TCTTATTGGT | 1.01 ± 0.013 |
| TCTTCACGTC | 1.003 ± 0.0029 |
| TCTTCACTAC | 1.25 ± 0.06 |
| TCTTCATGCG | 1.07 ± 0.053 |
| TCTTCGGTTG | 0.9805 ± 0.0096 |
| TCTTGACTAG | 1.06 ± 0.053 |
| TCTTGATGGG | 0.9811 ± 0.008 |

| Sequence | switch fluorescence ratio |
| --- | --- |
| TCTTGCATAA | 1.07 ± 0.076 |
| TCTTGGACGG | 0.985 ± 0.021 |
| TCTTGGGACG | 0.979 ± 0.042 |
| TCTTGGGTAT | 0.986 ± 0.035 |
| TCTTGTGAGT | 0.984 ± 0.012 |
| TCTTGTGG | 0.982 ± 0.012 |
| TCTTTACAAA | 1.03 ± 0.02 |
| TCTTTACAGG | 1.09 ± 0.067 |
| TCTTTATATG | 0.9989 ± 0.0033 |
| TCTTTCAGGA | 0.999 ± 0.013 |
| TCTTTGGAAC | 0.997 ± 0.034 |
| TCTTTGGGCT | 1.1 ± 0.19 |
| TCTTTGGGTT | 1.42 ± 0.92 |
| TCTTTGTTG | 1.02 ± 0.02 |
| TCTTTGTTTT | 0.991 ± 0.021 |
| TCTTTTACTG | 1.01 ± 0.033 |
| TCTTTTAGTA | 0.991 ± 0.035 |
| TCTTTTATTT | 0.998 ± 0.043 |
| TCTTTTGGGT | 0.9777 ± 0.0063 |
| TGAAAAAGG | 0.982 ± 0.019 |
| TGAAAAAGGG | 1.04 ± 0.027 |
| TGAAAAGGGA | 1.01 ± 0.017 |
| TGAAAATAG | 0.992 ± 0.018 |
| TGAAAATTTT | 0.99 ± 0.029 |
| TGAAAGATTA | 1.01 ± 0.029 |
| TGAAAGGCGT | 0.9862 ± 0.0072 |

| Sequence | switch fluorescence ratio |
| --- | --- |
| TGAAAGGGAT | 0.988 ± 0.077 |
| TGAAAGGGTA | 0.999 ± 0.022 |
| TGAAAGTTTT | 0.971 ± 0.025 |
| TGAAATATTT | 1.21 ± 0.21 |
| TGAAATGATC | 1.001 ± 0.0098 |
| TGAAATGGGT | 1.17 ± 0.24 |
| TGAACCAAGC | 1.08 ± 0.011 |
| TGAACCGCGA | 2.96 ± 0.18 |
| TGAACGGGGG | 1.02 ± 0.049 |
| TGAACTAAAT | 1.01 ± 0.024 |
| TGAACTTGGT | 0.929 ± 0.12 |
| TGAAGAGGGG | 0.994 ± 0.012 |
| TGAAGATGTG | 0.993 ± 0.02 |
| TGAAGCCTAC | 2.57 ± 0.28 |
| TGAAGGACCG | 0.952 ± 0.026 |
| TGAAGGCTTT | 1.01 ± 0.052 |
| TGAAGGGAAC | 1.06 ± 0.13 |
| TGAAGGGACG | 1.02 ± 0.015 |
| TGAAGGGGCT | 0.9833 ± 0.0052 |
| TGAAGGTAAC | 0.98 ± 0.012 |
| TGAAGTGAAC | 1.17 ± 0.22 |
| TGAAGTTCTT | 0.965 ± 0.011 |
| TGAATAAAGT | 0.978 ± 0.021 |
| TGAATAAATT | 1.02 ± 0.015 |
| TGAATAGAAC | 1.01 ± 0.015 |
| TGAATCATGG | 0.972 ± 0.022 |

| Sequence | switch fluorescence ratio |
| --- | --- |
| TGAATGACGG | 0.993 ± 0.026 |
| TGAATGAGAT | 0.967 ± 0.014 |
| TGAATGATTG | 0.995 ± 0.013 |
| TGAATGATTT | 0.967 ± 0.027 |
| TGAATGGGGG | 1.01 ± 0.045 |
| TGAATGTTTG | 1.01 ± 0.036 |
| TGAATTATAG | 1 ± 0.015 |
| TGAATTGGTG | 1.031 ± 0.0055 |
| TGAATTTAGA | 0.986 ± 0.025 |
| TGAATTTAGC | 1 ± 0.035 |
| TGAATTTAGT | 0.9729 ± 0.0089 |
| TGAATTTATA | 1.024 ± 0.0093 |
| TGAATTTATT | 1 ± 0.015 |
| TGAATTTTAG | 0.991 ± 0.01 |
| TGAATTTTTG | 0.989 ± 0.028 |
| TGACAAGTGG | 1.01 ± 0.015 |
| TGACAGTTGG | 1.017 ± 0.0055 |
| TGACATGGTG | 0.976 ± 0.018 |
| TGACCAATGT | 1 ± 0.028 |
| TGACCGAAAC | 1.2 ± 0.051 |
| TGACCGCGGA | 1.11 ± 0.039 |
| TGACCTGCAC | 1.51 ± 0.034 |
| TGACGAAACT | 1.35 ± 0.33 |

— the supplement of paper PMC10126150
